# Measured values: doi:10.1101/634592
# pKd: −log10 of the molar value.
# Experiments:
# [1] = molecular target: PI4KB phosphorylated at Ser496 (E. coli produced, PKA treated) (human) (UniProt Q9UBF8); assay: HDX-MS
# [2] = molecular target: PI4KB (isoform 2, E. coli produced, non-phosphorylated) (human) (UniProt Q9UBF8); assay: HDX-MS
substance,measurement,setting,value
"c10orf76 (untagged, E. coli produced) (from UniProt Q5T2E6 1-689) (natural protein)",pKd,[1],7.07
same,pKd,[2],7.52
